Source: US20090098608A1

Tests used:
[1] = target: FLAG-mLangerin.ECD (mouse) (UniProt Q9CS74); test: Western blot, purified protein in two-fold dilutions, 1 µg/ml antibody
[2] = target: both N-terminal and C-terminal FLAG tagged proteins; test: Western blot, serial dilutions
[3] = target: FLAG-mSIGN-R1.ECD (mouse) (UniProt Q9CS74); test: Western blot, 293T lysate in two-fold dilutions

lowest amount of purified protein detected by Western blot [1] | times better detection than mAb M2 [2] | fold fewer cells detectable than mAb M2 [3] | fold lower detectable amount than mAb M2 [1] | Substance
100 ng |  |  |  | mouse anti-FLAG mAb M2 (ANTI-FLAG M2, Sigma-Aldrich) (antibody)
25 ng | 2 to 8 times | 8 fold | 4 fold | rat anti-FLAG mAb L5 (antibody)
